The values below come from US7446182 (University of Texas, dated 2008).

Test [1] addresses T1, Bacillus anthracis protective antigen (PA), 83 kDa polypeptide (Bacillus anthracis, UniProt P13423 30-764).
In test [2] the target is T1, Bacillus anthracis protective antigen …. This is another data set of the same source.
Test [3] has the same target. The source holds these as a separate data set.

Several values for one entry are separate records, joined by “and”; a condition that tells them apart may be missing. Equal values may be shown once.

T1 sequence (P13423 30-764 limits assumed): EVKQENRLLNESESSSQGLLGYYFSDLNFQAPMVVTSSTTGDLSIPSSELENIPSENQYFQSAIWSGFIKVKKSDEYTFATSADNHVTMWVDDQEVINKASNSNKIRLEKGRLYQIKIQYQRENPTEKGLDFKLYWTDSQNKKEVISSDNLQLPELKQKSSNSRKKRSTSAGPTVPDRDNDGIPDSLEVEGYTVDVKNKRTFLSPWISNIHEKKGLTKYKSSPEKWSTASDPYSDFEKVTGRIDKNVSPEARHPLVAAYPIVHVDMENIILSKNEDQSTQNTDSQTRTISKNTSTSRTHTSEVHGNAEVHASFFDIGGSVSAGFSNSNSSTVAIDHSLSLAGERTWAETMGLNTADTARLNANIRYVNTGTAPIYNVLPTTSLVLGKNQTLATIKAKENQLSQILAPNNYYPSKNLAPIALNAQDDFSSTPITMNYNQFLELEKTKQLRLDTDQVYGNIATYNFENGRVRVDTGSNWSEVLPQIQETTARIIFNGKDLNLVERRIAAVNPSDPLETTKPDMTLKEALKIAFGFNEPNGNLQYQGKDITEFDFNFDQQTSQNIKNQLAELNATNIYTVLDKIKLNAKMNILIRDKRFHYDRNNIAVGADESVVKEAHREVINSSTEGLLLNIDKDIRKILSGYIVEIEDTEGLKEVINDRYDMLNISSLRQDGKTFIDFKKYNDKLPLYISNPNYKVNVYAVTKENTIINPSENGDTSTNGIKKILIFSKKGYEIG

B1: A2E scFv (scFv)
scFv: DIQMTQTTSSLSASLGDRVTISCRASQDIRNYLNWYQQKPDGTVKLLIYYTSRLQPGVPSRFSGSGSGTDYSLTISNQEQEDIGTYFCQQGNTLPWTGFFFTKLEIKRGGGGSGGGGSGGGGSGGGGSEVQLQQSGPELVKPGASVKISCKIDSGYAFSSSWMNWVKQRFGQGLEWIGRIYPGDGDTNYNGKFKGKATLTADKSSSTAYMQLSSLTSVDSAVYFCARSGLLRYAMDYWGQGTSVTVSS
Regarding B1, in test [1], the “fold higher affinity than the 14B7 scFv” value came out at 3 fold and the “fold lower equilibrium dissociation constant than 14B7” value turned out to be 3 fold. Also, the EC50 (read off the curve) (commonly the concentration needed to bring the measured effect to its halfway point) in test [2] is ~0.02 µg/mL and ~0.05 µg/mL. Also, in test [3], binding was put at a Kd of 4 nM; the koff – broadly, the first-order rate constant of dissociation – came out at 0.001 s⁻¹; the kon (as a rule, a measure of how fast the partners come together) is 300000 M⁻¹ s⁻¹.
